This data set concerns the molecule itself. As to the kind of experiment: single molecule photobleaching.

B1: Kif15-FL-GFP-His6 (natural protein, human, UniProt Q9NS87 1-1388, looked up)
chain: MAPGCKTELRSVTNGQSNQPSNEGDAIKVFVRIRPPAERSGSADGEQNLCLSVLSSTSLRLHSNPEPKTFTFDHVADVDTTQESVFATVAKSIVESCMSGYNGTIFAYGQTGSGKTFTMMGPSESDNFSHNLRGVIPRSFEYLFSLIDREKEKAGAGKSFLCKCSFIEIYNEQIYDLLDSASAGLYLREHIKKGVFVVGAVEQVVTSAAEAYQVLSGGWRNRRVASTSMNRESSRSHAVFTITIESMEKSNEIVNIRTSLLNLVDLAGSERQKDTHAEGMRLKEAGNINRSLSCLGQVITALVDVGNGKQRHVCYRDSKLTFLLRDSLGGNAKTAIIANVHPGSRCFGETLSTLNFAQRAKLIKNKAVVNEDTQGNVSQLQAEVKRLKEQLAELASGQTPPESFLTRDKKKTNYMEYFQEAMLFFKKSEQEKKSLIEKVTQLEDLTLKKEKFIQSNKMIVKFREDQIIRLEKLHKESRGGFLPEEQDRLLSELRNEIQTLREQIEHHPRVAKYAMENHSLREENRRLRLLEPVKRAQEMDAQTIAKLEKAFSEISGMEKSDKNQQGFSPKAQKEPCLFANTEKLKAQLLQIQTELNNSKQEYEEFKELTRKRQLELESELQSLQKANLNLENLLEATKACKRQEVSQLNKIHAETLKIITTPTKAYQLHSRPVPKLSPEMGSFGSLYTQNSSILDNDILNEPVPPEMNEQAFEAISEELRTVQEQMSALQAKLDEEEHKNLKLQQHVDKLEHHSTQMQELFSSERIDWTKQQEELLSQLNVLEKQLQETQTKNDFLKSEVHDLRVVLHSADKELSSVKLEYSSFKTNQEKEFNKLSERHMHVQLQLDNLRLENEKLLESKACLQDSYDNLQEIMKFEIDQLSRNLQNFKKENETLKSDLNNLMELLEAEKERNNKLSLQFEEDKENSSKEILKVLEAVRQEKQKETAKCEQQMAKVQKLEESLLATEKVISSLEKSRDSDKKVVADLMNQIQELRTSVCEKTETIDTLKQELKDINCKYNSALVDREESRVLIKKQEVDILDLKETLRLRILSEDIERDMLCEDLAHATEQLNMLTEASKKHSGLLQSAQEELTKKEALIQELQHKLNQKKEEVEQKKNEYNFKMRQLEHVMDSAAEDPQSPKTPPHFQTHLAKLLETQEQEIEDGRASKTSLEHLVTKLNEDREVKNAEILRMKEQLREMENLRLESQQLIEKNWLLQGQLDDIKRQKENSDQNHPDNQQLKNEQEESIKERLAKSKIVEEMLKMKADLEEVQSALYNKEMECLRMTDEVERTQTLESKAFQEKEQLRSKLEEMYEERERTSQEMEMLRKQVECLAEENGKLVGHQNLHQKIQYVVRLKKENVRLAEETEKLRAENVFLKEKKRSES
Consider B1, for which the “stoichiometry N” value amounted to 2.
